The values below come from the supplement of paper PMC10567573.

B1: SMTNL2 (parent)
chain: ETAAGKGKGEARARLKRSQSFGVA
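Also: lentivirally expressed fusions sorted by FACS into six bins by GFP to DsRed ratio, PSI derived from sequencing read proportions per bin multiplied by bin number.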

This data set covers variants of B1. In words: protein stability index of a GFP-peptide fusion (GPS, HEK-293T) (PSI 1-6); higher = more stable. The conditions noted are these: c terminus: a fixed tail appended.
Regarding ETAAGKGKGEARARLKRSISFGVA [Q19I], the protein stability index was 3.27.

Turning to ETAAGKGKGEARARLKRSQSFGAA [V23A], the protein stability index was determined as 5.1. As for ETAAGKGKGEARARLKRPQSFGVA [S18P], the figure is 4.01. Take ETAAGKGKGEARARLKRQQSFGVA [S18Q]: the protein stability index turned out to be 4.43. With ETAAGKGKGEARARLKRDQSFGVA [S18D], the protein stability index came to 4.46. For ETAAGKGKGEARARLKRHQSFGVA [S18H] the value was 4.02; for ETAAGKGKGEARARLKRLQSFGVA [S18L], 3.49; for ETAAGKGKGEARARLKRGQSFGVA [S18G], 4.6. For ETAAGKGKGEARARLKRMQSFGVA [S18M] the value was 3.69; for ETAAGKGKGEARARLKRTQSFGVA [S18T], 4.22. As for ETAAGKGKGEARARLKRYQSFGVA [S18Y], the figure is 2.89. Consider ETAAGKGKGEARARLKRCQSFGVA [S18C], for which the protein stability index turned out to be 3.81. As for ETAAGKGKGEARARLKRWQSFGVA [S18W], the figure is 3.64. For ETAAGKGKGEARARLKRRQSFGVA [S18R] the value was 4.26. In the case of ETAAGKGKGEARARLKRVQSFGVA [S18V], the protein stability index was 3.94. With ETAAGKGKGEARARLKRKQSFGVA [S18K], the protein stability index amounted to 4.43. As for ETAAGKGKGEARARLKRNQSFGVA [S18N], the figure is 4.5; as for ETAAGKGKGEARARLKRAQSFGVA [S18A], 4.22; as for ETAAGKGKGEARARLKRIQSFGVA [S18I], 3.52. ETAAGKGKGEARARLKREQSFGVA [S18E]: the protein stability index is 4.36. In the case of ETAAGKGKGEARARLKRFQSFGVA [S18F], the protein stability index amounted to 3.65.

For the variant ETAAGKGKGEARKRLKRSQSFGVA [A13K], the protein stability index was determined as 4.86. On to ETAAGKGKGEARHRLKRSQSFGVA [A13H], for which the protein stability index is 4.83. Consider ETAAGKGKGEARGRLKRSQSFGVA [A13G], for which the protein stability index amounted to 4.78. For ETAAGKGKGEARTRLKRSQSFGVA [A13T] the value was 4.61; for ETAAGKGKGEARIRLKRSQSFGVA [A13I], 4.54; for ETAAGKGKGEARYRLKRSQSFGVA [A13Y], 4.3. With ETAAGKGKGEARVRLKRSQSFGVA [A13V], the protein stability index amounted to 3.82. Regarding ETAAGKGKGEARMRLKRSQSFGVA [A13M], the protein stability index is 4.05. As for ETAAGKGKGEARNRLKRSQSFGVA [A13N], the figure is 4.55; as for ETAAGKGKGEARFRLKRSQSFGVA [A13F], 3.9. For ETAAGKGKGEARWRLKRSQSFGVA [A13W] the value was 3.67; for ETAAGKGKGEARLRLKRSQSFGVA [A13L], 4.11. For ETAAGKGKGEARPRLKRSQSFGVA [A13P] the value was 4.7; for ETAAGKGKGEARQRLKRSQSFGVA [A13Q], 4.38; for ETAAGKGKGEARRRLKRSQSFGVA [A13R], 4.05. For the variant ETAAGKGKGEARSRLKRSQSFGVA [A13S], the protein stability index came to 4.67. As for ETAAGKGKGEARARLKRSQSFTVA [G22T], the protein stability index came to 4.31. For ETAAGKGKGEARARLKRSQSFPVA [G22P] the value was 5.71; for ETAAGKGKGEARARLKRSQSFFVA [G22F], 2.84; for ETAAGKGKGEARARLKRSQSFQVA [G22Q], 4.36. As for ETAAGKGKGEARARLKRSQSFHVA [G22H], the figure is 4.14; as for ETAAGKGKGEARARLKRSQSFVVA [G22V], 4.32; as for ETAAGKGKGEARARLKRSQSFCVA [G22C], 4.84. For ETAAGKGKGEARARLKRSQSFDVA [G22D], the protein stability index turned out to be 5.1. For ETAAGKGKGEARARLKRSQSFRVA [G22R] the value was 4.28; for ETAAGKGKGEARARLKRSQSFAVA [G22A], 4.2; for ETAAGKGKGEARARLKRSQSFKVA [G22K], 4.81.

As for ETAAGKGKGEARARLKRSQSFNVA [G22N], the protein stability index was 4.76.

As to ETAAGKGKGEARARLKRSQSFYVA [G22Y], the protein stability index was found to be 3.84. As for ETAAGKGKGEARARLKRSQSFIVA [G22I], the figure is 3.9; as for ETAAGKGKGEARARLKRSQSFLVA [G22L], 4.1. For ETAAGKGKGEARARLKRSQSFSVA [G22S], the protein stability index stood at 5.13. In the case of ETAAGKGKGEARARLKRSQSFEVA [G22E], the protein stability index worked out at 5.65.

Take ETAAGKGKGEARARLKRSQSFMVA [G22M]: the protein stability index came out at 3.86.

With ETAAGKGKGEARARLKRSQSFWVA [G22W], the protein stability index was 2.81.

On to ETAAGKGKGEARAFLKRSQSFGVA [R14F], for which the protein stability index is 4.18. As for ETAAGKGKGEARATLKRSQSFGVA [R14T], the figure is 4.4; as for ETAAGKGKGEARAVLKRSQSFGVA [R14V], 4.25; as for ETAAGKGKGEARAMLKRSQSFGVA [R14M], 4.27. For ETAAGKGKGEARAILKRSQSFGVA [R14I] the value was 4.27.

In the case of ETAAGKGKGEARALLKRSQSFGVA [R14L], the protein stability index worked out at 4.29. As for ETAAGKGKGEARAYLKRSQSFGVA [R14Y], the figure is 4.09. Consider ETAAGKGKGEARAELKRSQSFGVA [R14E], for which the protein stability index worked out at 4.88. Regarding ETAAGKGKGEARANLKRSQSFGVA [R14N], the protein stability index came out at 4.68. Consider ETAAGKGKGEARAGLKRSQSFGVA [R14G], for which the protein stability index turned out to be 4.9. For ETAAGKGKGEARAALKRSQSFGVA [R14A] the value was 3.79; for ETAAGKGKGEARAKLKRSQSFGVA [R14K], 4.85.

As to ETAAGKGKGEARAPLKRSQSFGVA [R14P], the protein stability index worked out at 5.19. As for ETAAGKGKGEARADLKRSQSFGVA [R14D], the figure is 4.82; as for ETAAGKGKGEARASLKRSQSFGVA [R14S], 4.41. As for ETAAGKGKGEARAHLKRSQSFGVA [R14H], the figure is 4.69.

Regarding ETAAGKGKGEARAWLKRSQSFGVA [R14W], the protein stability index amounted to 4.03. As for ETAAGKGKGEARACLKRSQSFGVA [R14C], the protein stability index worked out at 4.53. ETAAGKGKGEARAQLKRSQSFGVA [R14Q]: the protein stability index is 4.66. Regarding ETAAGKGKGEARARRKRSQSFGVA [L15R], the protein stability index amounted to 4.49. ETAAGKGKGEARARGKRSQSFGVA [L15G]: the protein stability index is 4.49.

ETAAGKGKGEARARMKRSQSFGVA [L15M]: the protein stability index was 3.95.

Regarding ETAAGKGKGEARARCKRSQSFGVA [L15C], the protein stability index was 4.24. For ETAAGKGKGEARARHKRSQSFGVA [L15H] the value was 4.44; for ETAAGKGKGEARARSKRSQSFGVA [L15S], 4.76; for ETAAGKGKGEARARQKRSQSFGVA [L15Q], 4.91. Consider ETAAGKGKGEARARTKRSQSFGVA [L15T], for which the protein stability index amounted to 3.83.

On to ETAAGKGKGEARARDKRSQSFGVA [L15D], for which the protein stability index was 4.03. As for ETAAGKGKGEARARWKRSQSFGVA [L15W], the figure is 4.29; as for ETAAGKGKGEARARNKRSQSFGVA [L15N], 4.89. Regarding ETAAGKGKGEARARKKRSQSFGVA [L15K], the protein stability index worked out at 4.77. As for ETAAGKGKGEARARPKRSQSFGVA [L15P], the figure is 5.01; as for ETAAGKGKGEARARIKRSQSFGVA [L15I], 4.51; as for ETAAGKGKGEARARVKRSQSFGVA [L15V], 4.76. As for ETAAGKGKGEARAREKRSQSFGVA [L15E], the figure is 4.7; as for ETAAGKGKGEARARYKRSQSFGVA [L15Y], 4.09. As for ETAAGKGKGEARARFKRSQSFGVA [L15F], the figure is 3.69. Turning to ETAAGKGKGEARARAKRSQSFGVA [L15A], the protein stability index worked out at 4.46.
